Results taken from US20120027763A1 (TRANSGENE BIOTEK, published 2012).

Target: T1, TNFRSF17-epag
T1 construct: also called TNFRS17-epag
T1 peptide: KSRTGDEIILPRGLC
Assay: screening of ascites mAbs by specific Ag binding activity, after immunization with SEQ ID NO:2

B1: TBL-CLN1 (antibody, V domains shown)
VH: EVKLVESGGGLVKPGGSLKLSCAASGITFSTYAMSWVRQTPEKRLEWVASITTGGNVYFPDSVKGRFTISRDNARNILYLQMSSLRSEDTAMYYCAGGITATRGTFAYWGQGTTLTVSS
VL: DVLMTQTPLSLPVSLGDQASISCRSSQSIGHSNGITYLEWYLQKPGQSPKLLIYKVSNRFSGVPDRFSGSGSGTDFTLKISRVEAEDLGVYYCFEGSHVPLTFGAGTKLELKR
notes: also called TBL-CLNI
binding result: binds
